Paper PMC5947699, “Cloning, purification and structure determination of the HIV integrase-binding domain of lens epithelium-derived growth factor” (Acta Crystallographica. Section F, Structural Biology …, 2018)

Molecular target: the molecule itself
Assay: AUC; sedimentation velocity, twofold dilution series starting from 6.5 mg/ml, 50 000 rev/min, 20°C, absorbance (280 nm) and interference optics, c(s) model in SEDFIT; buffer similar to that used for crystallization; monomer to dimer; self-association not saturated

B1: HIV integrase-binding domain (IBD) of lens epithelium-derived growth factor (LEDGF)/p75, His tag cleaved (domain or fragment, human)
chain: GGSMGSGGGGSGGGGSGGGGAAAMETSMDSRLQRIHAEIKNSLKIDNLDVNRCIEALDELASLQVTMQQAQKHTEMITTLKKIRRFKVSQVIMEKSTMLYNKFKNMFLVGE
notes: 24-amino-acid linker ending with methionine that precedes Glu345 of the IBD; left on the protein after TEV cleavage (ENLYFQ/G); Intact mass 11 882 Da measured against 11 881.66 Da calculated; The linker was not visible in the electron density; also called IBD protein; free IBD; source: E. coli B834 (DE3), purified (IMAC, SEC, TEV cleavage, reverse IMAC) for crystallization; E. coli C41 (DE3), …
Question: What does the source list for B1?
Answer: Kd: ~2000 µM; stoichiometry N: 2
